Earlier results as cited in paper PMC3499705.
Where two headings read alike, the source gives them in different places. One block for each substance: values may come before it.

How the values were obtained:
[1] = biological target: VPAC1 receptor N-terminal ectodomain (Homo sapiens) (UniProt P32241); assay: intrinsic tryptophan fluorescence
[2] = biological target: VPAC1 receptor N-terminal ectodomain (Homo sapiens) (UniProt P32241)
VIP (Homo sapiens) = VIP (Homo sapiens) (UniProt P01282)
GRF (Homo sapiens) = GRF (Homo sapiens) (UniProt P01286); assay: intrinsic tryptophan fluorescence
[3] = biological target: Helodermin (Heloderma suspectum) (UniProt P04204); assay: intrinsic tryptophan fluorescence
[4] = biological target: PACAP27 PACAP27 (Homo sapiens) (UniProt P18509); assay: intrinsic tryptophan fluorescence
PHM PHM (Homo sapiens) = PHM PHM (Homo sapiens) (UniProt P01282); assay: intrinsic tryptophan fluorescence
Secretin (Homo sapiens) = Secretin (Homo sapiens) (UniProt P09683); assay: intrinsic tryptophan fluorescence
[5] = biological target: VIP2-28 2-28 (Homo sapiens) (UniProt P01282); assay: intrinsic tryptophan fluorescence
[6] = biological target: VIP6-28 6-28 (Homo sapiens) (UniProt P01282); assay: intrinsic tryptophan fluorescence

- Kd [1]: 10100 nM
Substance: GRF (from UniProt P01286)

- Kd [1]: 850 nM
Substance: VIP2-28 2-28 (from UniProt P01282)

Substance: helodermin (from UniProt P04204)
- Kd [1]: 2540 nM

- Kd [2]: 540 nM
Substance: VIP (from UniProt P01282)

- Kd [1]: 16000 nM
Substance: secretin (from UniProt P09683)

- Kd [1]: 8000 nM
Substance: PHM PHM (from UniProt P01282)

Substance: VPAC1 receptor 31-144 (from UniProt P32241)
- Kd (VIP (Homo sapiens)): 540 nM
- Kd (GRF (Homo sapiens)): 10100 nM
- Kd [3]: 2540 nM
- Kd [4]: 570 nM
- Kd (PHM PHM (Homo sapiens)): 8000 nM
- Kd (Secretin (Homo sapiens)): 16000 nM
- Kd [5]: 850 nM
- Kd [6]: 850 nM

- Kd [1]: 570 nM
Substance: PACAP27 PACAP27 (from UniProt P18509)
